Laboratory results taken from US20040146964.

B1: recombinant C. elegans PHY-2 (protein)
chain: DLFTAIADLQHMLGAEKDVTTIIDQYIEAERARLDDLRRYAHEYVHRNAHAESVGPEFVTNPINAYLLIKRLTTEWKKVENIMLNNKASTFLKNITDNRVRSEVKFPGEEDLSGAATALLRLQDTYSLDTLDLSNGIIGGEKVSNKLSGHDTFEVGRSAYNQKDYYHCLMWMQVALVKIENENPPTIEEWEILEYLAYSLYQQGNVRRALSLTKRLAKIAPNHPRAKGNVKWYEDMLQGKDMVGDLPPIVNKRVEYDGIVERDAYEALCRGEIPPVEPKWKNKLRCYLKRDKPFLKLAPIKVEILRFDPLAVLFKNVIHDSEIEVIKELASPKLKRATVQNSKTGELEHATYRISKSAWLKGDLDPVIDRVNRRIEDFTNLNQATSEELQVANYGLGGHYDPHFDFARKEEKNAFKTLNTGNRIATVLFYMSQPERGGATVFNHLGTAVFPSKNDALFWYNLRRDGEGDLRTRHAACPVLLGVKWVSNKWIHEKGQEFTRPCGLEEEVQENFIGDLSPYANDP
B2: human PHD2 (protein)
chain: MANDSGGPGGPSPSERDRQYCELCGKMENLLRCSRCRSSFYCCKEHQRQDWKKHKLVCQGSEGALGHGVGPHQHSGPAPPAAVPPPRAGAREPRKAAARRDNASGDAAKGKVKAKPPADPAAAASPCRAAAGGQGSAVAAEAEPGKEEPPARSSLFQEKANLYPPSNTPGDALSPGGGLRPNGQTKPLPALKLALEYIVPCMNKHGICVVDDFLGKETGQQIGDEVRALHDTGKFTDGQLVSQKSDSSKDIRGDKITWIEGKEPGCETIGLLMSSMDDLIRHCNGKLGSYKINGRTKAMVACYPGNGTGYVRHVDNPNGDGRCVTCIYYLNKDWDAKVSGGILRIFPEGKAQFADIEPKFDRLLFFWSDRRNPHEVQPAYATRYAITVWYFDADERARAKVKYLTGEKGVRVELNKPSDSVGKDVF
B3: recombinant human type II prolyl 4-hydroxylase (protein)
chain 1: EFFTSIGHMTDLIYAEKELVQSLKEYILVEEAKLSKIKSWANKMEALTSKSAADAEGYLAHPVNAYKLVKRLNTDWPALEDLVLQDSAAGFIANLSVQRQFFPTDEDEIGAAKALMRLQDTYRLDPGTISRGELPGTKYQAMLSVDDCFGMGRSAYNEGDYYHTVLWMEQVLKQLDAGEEATTTKSQVLDYLSYAVFQLGDLHRALELTRRLLSLDPSHERAGGNLRYFEQLLEEEREKTLTNQTEAELATPEGIYERPVDYLPERDVYESLCRGEGVKLTPRRQKRLFCRYHHGNRAPQLLIAPFKEEDEWDSPHIVRYYDVMSDEEIERIKEIAKPKLARATVRDPKTGVLTVASYRVSKSSWLEEDDDPVVARVNRRMQHITGLTVKTAELLQVANYGVGGQYEPHFDFSRNDERDTFKHLGTGNRVATFLNYMSDVEAGGATVFPDLGAAIWPKKGTAVFWYNLLRSGEGDYRTRHAACPVLVGCKWVSNKWFHERGQEFLRPCGSTEVD
chain 2: not shown
B4: rat SM-20, full length (protein)
chain: MPLGHIMRLDLEKIALEYIVPCLHEVGFCYLDNFLGEVVGDCVLERVKQLHYNGALRDGQLAGPRAGVSKRHLRGDQITWIGGNEEGCEAINFLLSLIDRLVLYCGSRLGKYYVKERSKAMVACYPGNGTGYVRHVDNPNGDGRCITCIYYLNKNWDAKLHGGVLRIFPEGKSFVADVEPIFDRLLFSWSDRRNPHEVQPSYATRYAMTVWYFDAEERAEAKKKFRNLTRKTESALAKD
B5: human PHD3 (protein)
chain: MPLGHIMRLDLEKIALEYIVPCLHEVGFCYLDNFLGEVVGDCVLERVKQLHCTGALRDGQLAGPRAGVSKRHLRGDQITWIGGNEEGCEAISFLLSLIDRLVLYCGSRLGKYYVKERSKAMVACYPGNGTGYVRHVDNPNGDGRCITCIYYLNKNWDAKLHGGILRIFPEGKSFIADVEPIFDRLLFFWSDRRNPHEVQPSYATRYAMTVWYFDAEERAEAKKKFRNLTRKTESALTED
B6: recombinant C. elegans PHY-1 (protein)
chain: DLFTSIADMQNLLETERNIPKILDKYIHDEEERLVQLKKLSEEYSKKNEISIENGLKDITNPINAFLLIKRKIFDWKEIESKMNANKAGNVVSSITDDSYGVRYPTADDLSGAAIGLLRLQDTYRLDTKDLADGKIYADQGNYTFSAKDCFEIARAAYNEHDFYHTVMWMEEAQRRLGDEVEPTVEVEDILEYLAFALYKQNNLKHALKLTEELYKMNPTHPRAKGNVKWYEDLLEQEGVRRSDMRKNLPPIQNRRPDSVLGNTERTMYEALCRNEVPVSQKDISRLYCYYKRDRPFLVYAPIKVEIKRFNPLAVLFKDVISDDEVAAIQELAKPKLARATVHDSVTGKLVTATYRISKSAWLKEWEGDVVETVNKRIGYMTNLEMETAEELQIANYGIGGHYDPHFDHAKKEESKSFESLGTGNRIATVLFYMSQPSHGGGTVFTEAKSTILPTKNDALFWYNLYKQGDGNPDTRHAACPVLVGIKWVSNKWIHEKGNEFRRPCGLKSSDYERFVGDLGYGPEPRNAPNVSPNLAKDVWETL
B7: recombinant human type I prolyl 4-hydroxylase (protein)
chain 1: HPGFFTSIGQMTDLIHTEKDLVTSLKDYIKAEEDKLEQIKKWAEKLDRLTSTATKDPEGFVGHPVNAFKLMKRLNTEWSELENLVLKDMSDGFISNLTIQRQYFPNDEDQVGAAKALLRLQDTYNLDTDTISKGNLPGVKHKSFLTAEDCFELGKVAYTEADYYHTELWMEQALRQLDEGEISTIDKVSVLDYLSYAVYQQGDLDKALLLTKKLLELDPEHQRANGNLKYFEYIMAKEKDVNKSASDDQSDQKTTPKKKGVAVDYLPERQKYEMLCRGEGIKMTPRRQKKLFCRYHDGNRNPKFILAPAKQEDEWDKPRIIRFHDIISDAEIEIVKDLAKPRLRRATISNPITGDLETVHYRISKSAWLSGYENPVVSRINMRIQDLTGLDVSTAEELQVANYGVGGQYEPHFDFARKDEPDAFKELGTGNRIATWLFYMSDVSAGGATVFPEVGASVWPKKGTAVFWYNLFASGEGDYSTRHAACPVLVGNKWVSNKWLHERGQEFRRPCTLSELE
chain 2: not shown

How the values were obtained:
[1] = target: T1, C. elegans HIF-α homologue, wild type
T1 chain: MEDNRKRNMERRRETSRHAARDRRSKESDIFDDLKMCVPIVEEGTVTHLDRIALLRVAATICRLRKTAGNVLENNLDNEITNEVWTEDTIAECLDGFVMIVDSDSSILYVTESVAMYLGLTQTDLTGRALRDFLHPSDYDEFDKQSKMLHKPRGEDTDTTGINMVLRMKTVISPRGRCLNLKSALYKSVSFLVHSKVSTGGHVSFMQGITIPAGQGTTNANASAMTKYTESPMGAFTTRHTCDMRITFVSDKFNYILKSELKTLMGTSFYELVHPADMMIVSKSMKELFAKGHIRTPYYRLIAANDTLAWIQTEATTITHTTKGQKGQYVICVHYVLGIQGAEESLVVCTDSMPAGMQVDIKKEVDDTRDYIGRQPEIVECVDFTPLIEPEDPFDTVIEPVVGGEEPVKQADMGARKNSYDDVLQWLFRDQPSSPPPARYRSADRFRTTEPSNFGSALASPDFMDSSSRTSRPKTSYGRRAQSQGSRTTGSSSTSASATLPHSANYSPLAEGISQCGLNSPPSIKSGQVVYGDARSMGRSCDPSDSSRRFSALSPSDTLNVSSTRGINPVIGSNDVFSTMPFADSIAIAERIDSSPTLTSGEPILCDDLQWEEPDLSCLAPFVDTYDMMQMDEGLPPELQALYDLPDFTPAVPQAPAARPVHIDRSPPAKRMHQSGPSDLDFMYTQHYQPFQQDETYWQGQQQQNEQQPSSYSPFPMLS

[2] = target: full length HIF-1α double mutant P402A+P564G
Sequence of full length HIF-1α double mutant P402A+P564G (chain, as listed by the source P402A P564G): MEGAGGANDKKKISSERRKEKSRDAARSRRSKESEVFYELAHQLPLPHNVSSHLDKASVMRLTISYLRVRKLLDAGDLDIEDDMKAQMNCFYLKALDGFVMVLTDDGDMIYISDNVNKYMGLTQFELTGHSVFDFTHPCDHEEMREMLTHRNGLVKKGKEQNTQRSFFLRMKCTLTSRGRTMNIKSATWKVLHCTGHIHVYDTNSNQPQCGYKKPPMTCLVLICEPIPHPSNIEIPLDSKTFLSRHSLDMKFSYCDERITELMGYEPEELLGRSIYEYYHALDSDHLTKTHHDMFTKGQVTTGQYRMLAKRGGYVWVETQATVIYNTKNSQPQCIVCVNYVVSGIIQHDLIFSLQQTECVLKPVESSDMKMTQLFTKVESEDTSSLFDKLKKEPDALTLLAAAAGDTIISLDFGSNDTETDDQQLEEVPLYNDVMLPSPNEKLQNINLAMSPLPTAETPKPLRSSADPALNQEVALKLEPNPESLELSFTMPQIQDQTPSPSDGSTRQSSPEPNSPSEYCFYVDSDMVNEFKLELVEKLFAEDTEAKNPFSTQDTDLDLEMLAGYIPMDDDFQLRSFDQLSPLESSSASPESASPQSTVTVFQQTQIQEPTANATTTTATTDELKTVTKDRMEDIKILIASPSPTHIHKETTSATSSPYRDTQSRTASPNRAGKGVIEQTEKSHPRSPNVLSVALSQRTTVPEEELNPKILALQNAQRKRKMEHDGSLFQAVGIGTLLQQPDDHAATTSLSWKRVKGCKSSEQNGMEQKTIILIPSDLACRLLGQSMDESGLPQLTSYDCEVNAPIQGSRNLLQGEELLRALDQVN

[3] = target: human HIF-1α, full length wild type
[4] = target: T2, synthetic polypeptide of HIF-1α residues 556-574, unmodified
T2 chain: DLDLEMLAPYIPMDDDFQL

Sequence of full length HIF-1α P402A (chain, as listed by the source P402A): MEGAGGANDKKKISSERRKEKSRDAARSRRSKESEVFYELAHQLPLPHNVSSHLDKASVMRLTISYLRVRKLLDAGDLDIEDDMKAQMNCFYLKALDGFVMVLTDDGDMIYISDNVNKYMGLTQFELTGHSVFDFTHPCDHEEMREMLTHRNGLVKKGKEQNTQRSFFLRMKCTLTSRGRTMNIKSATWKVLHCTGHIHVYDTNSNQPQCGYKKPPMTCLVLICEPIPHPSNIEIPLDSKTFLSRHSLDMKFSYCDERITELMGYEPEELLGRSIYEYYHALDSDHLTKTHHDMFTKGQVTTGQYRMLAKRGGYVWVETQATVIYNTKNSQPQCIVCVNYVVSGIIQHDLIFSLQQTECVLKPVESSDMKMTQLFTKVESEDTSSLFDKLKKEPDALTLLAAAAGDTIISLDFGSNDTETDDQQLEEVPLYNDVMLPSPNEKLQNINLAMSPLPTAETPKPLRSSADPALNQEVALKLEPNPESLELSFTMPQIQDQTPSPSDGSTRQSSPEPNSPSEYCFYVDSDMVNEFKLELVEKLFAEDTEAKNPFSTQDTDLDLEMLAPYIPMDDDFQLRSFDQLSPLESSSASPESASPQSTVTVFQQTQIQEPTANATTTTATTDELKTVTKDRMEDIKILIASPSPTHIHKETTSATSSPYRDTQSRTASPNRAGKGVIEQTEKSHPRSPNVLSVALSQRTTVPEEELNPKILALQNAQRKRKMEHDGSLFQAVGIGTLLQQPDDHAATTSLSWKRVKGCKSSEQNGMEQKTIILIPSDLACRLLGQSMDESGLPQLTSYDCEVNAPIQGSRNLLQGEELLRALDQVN
Sequence of full length HIF-1α P564G (chain, as listed by the source P564G): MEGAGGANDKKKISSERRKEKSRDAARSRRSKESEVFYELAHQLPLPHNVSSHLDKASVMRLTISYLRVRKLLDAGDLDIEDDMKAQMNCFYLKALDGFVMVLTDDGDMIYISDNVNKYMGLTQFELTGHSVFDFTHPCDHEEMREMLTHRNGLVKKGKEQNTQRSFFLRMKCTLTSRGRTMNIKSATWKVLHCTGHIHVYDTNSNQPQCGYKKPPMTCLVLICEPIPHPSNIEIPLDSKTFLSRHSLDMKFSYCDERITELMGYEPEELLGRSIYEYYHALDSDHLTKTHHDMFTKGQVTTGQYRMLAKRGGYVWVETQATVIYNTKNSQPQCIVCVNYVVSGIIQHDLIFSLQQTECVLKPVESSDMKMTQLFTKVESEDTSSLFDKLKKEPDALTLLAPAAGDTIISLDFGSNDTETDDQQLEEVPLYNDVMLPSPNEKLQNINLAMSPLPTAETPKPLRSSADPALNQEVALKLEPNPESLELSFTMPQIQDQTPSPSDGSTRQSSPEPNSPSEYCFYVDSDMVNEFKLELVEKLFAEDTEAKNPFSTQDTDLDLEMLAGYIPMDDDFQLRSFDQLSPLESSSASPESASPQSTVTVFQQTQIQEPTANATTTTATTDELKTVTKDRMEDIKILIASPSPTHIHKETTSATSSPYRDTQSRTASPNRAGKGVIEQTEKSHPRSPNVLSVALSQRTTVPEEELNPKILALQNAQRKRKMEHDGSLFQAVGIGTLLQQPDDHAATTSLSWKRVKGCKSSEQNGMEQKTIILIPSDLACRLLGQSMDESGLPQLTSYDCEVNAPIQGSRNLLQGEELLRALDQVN

| Protein | promotion of VHL E3 capture via the C-terminal (P564) site (full length HIF-1α P402A) | promotion of VHL E3 capture (negative) [2] | promotion of the HIFα/VHL E3 interaction (anti-HA IP with 786-0/VHL extract) [3] | other results |
| --- | --- | --- | --- | --- |
| B1 | – | – | – | modification of HIF-1 read by HA.VHL-1 capture [1]: had no activity in these assays |
| B2 | interaction through the C-terminal site could be promoted by all enzymes | No activity at all was observed with a double HIF-1α mutant, P402A P564G, that ablates both hydroxylation sites | With full length wild-type HIF-1α, striking activity was observed with rat SM-20 and all three human gene products | promotion of VHL E3 capture via the N-terminal (P402) site (full length HIF-1α P564G): VHL E3 capture was less efficient when only the N-terminal site (P402) was intact, and was only promoted by EGLN2 (PHD1) and EGLN1(PHD2) |
| B3 | – | – | – | prolyl 4-hydroxylase activity (hydroxylation-coupled decarboxylation of 2-oxoglutarate) [4]: the HIF polypeptide showed no activity |
| B4 | interaction through the C-terminal site could be promoted by all enzymes | No activity at all was observed with a double HIF-1α mutant, P402A P564G, that ablates both hydroxylation sites | With full length wild-type HIF-1α, striking activity was observed with rat SM-20 and all three human gene products | – |
| B5 | interaction through the C-terminal site could be promoted by all enzymes | No activity at all was observed with a double HIF-1α mutant, P402A P564G, that ablates both hydroxylation sites | With full length wild-type HIF-1α, striking activity was observed with rat SM-20 and all three human gene products | – |
| B6 | – | – | – | modification of HIF-1 read by HA.VHL-1 capture [1]: had no activity in these assays |
| B7 | – | – | – | prolyl 4-hydroxylase activity (hydroxylation-coupled decarboxylation of 2-oxoglutarate) [4]: the HIF polypeptide showed no activity |
